Experimental data reported in publication PMC10397247.
Blank lines part the entries; values can stand above or below the binder they belong to.

How the values were obtained:
4H327-AA = target: T1, 4H327-AA; assay: two-hybrid library CCmax; settings: mean of both orientations;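 also: natural log of median RNA to DNA barcode read ratio; higher means stronger binding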
T1 chain: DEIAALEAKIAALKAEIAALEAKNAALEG

4H662-AA = target: T2, 4H662-AA; assay: two-hybrid library CCmax; settings: mean of both orientations;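 also: natural log of median RNA to DNA barcode read ratio; higher means stronger binding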
T2 chain: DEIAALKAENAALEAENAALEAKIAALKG

4H4033-AA = target: T3, 4H4033-AA; assay: two-hybrid library CCmax; settings: mean of both orientations;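 also: natural log of median RNA to DNA barcode read ratio; higher means stronger binding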
T3 chain: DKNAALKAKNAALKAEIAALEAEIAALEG

4H3605-AA = target: T4, 4H3605-AA; assay: two-hybrid library CCmax; settings: mean of both orientations;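 also: natural log of median RNA to DNA barcode read ratio; higher means stronger binding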
T4 chain: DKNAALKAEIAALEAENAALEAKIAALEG

4H3664-AA = target: T5, 4H3664-AA; assay: two-hybrid library CCmax; settings: mean of both orientations;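 also: natural log of median RNA to DNA barcode read ratio; higher means stronger binding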
T5 chain: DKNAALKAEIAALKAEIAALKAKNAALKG

4H3922-AA = target: T6, 4H3922-AA; assay: two-hybrid library CCmax; settings: mean of both orientations;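 also: natural log of median RNA to DNA barcode read ratio; higher means stronger binding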
T6 chain: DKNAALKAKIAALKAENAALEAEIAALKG

4H369-AA = target: T7, 4H369-AA; assay: two-hybrid library CCmax
T7 chain: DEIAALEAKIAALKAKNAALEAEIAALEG

4H481-AA = target: T8, 4H481-AA; assay: two-hybrid library CCmax; settings: mean of both orientations
T8 chain: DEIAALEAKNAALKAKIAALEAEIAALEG

4H3625-AA = target: T9, 4H3625-AA; assay: two-hybrid library CCmax; settings: mean of both orientations
T9 chain: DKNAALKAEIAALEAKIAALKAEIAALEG

Core_IIIN-es_EKEE = target: T10, Core_IIIN-es_EKEE; assay: two-hybrid library CCmax; settings: mean of both orientations
T10 chain: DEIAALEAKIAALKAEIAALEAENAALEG

4H2608-AA = target: T11, 4H2608-AA; assay: two-hybrid library CCmax
T11 chain: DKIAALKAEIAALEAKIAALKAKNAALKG

4H2726-AA = target: T12, 4H2726-AA; assay: two-hybrid library CCmax; settings: mean of both orientations
T12 chain: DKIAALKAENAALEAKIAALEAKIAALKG

4H2935-AA = target: T13, 4H2935-AA; assay: two-hybrid library CCmax; settings: mean of both orientations
T13 chain: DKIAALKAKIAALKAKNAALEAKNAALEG

4H2614-AA = target: T14, 4H2614-AA; assay: two-hybrid library CCmax; settings: mean of both orientations
T14 chain: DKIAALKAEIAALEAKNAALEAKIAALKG

4H55-AA = target: T15, 4H55-AA; assay: two-hybrid library CCmax; settings: mean of both orientations
T15 chain: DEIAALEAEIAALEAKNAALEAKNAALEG

P3A = target: T16, P3A; assay: two-hybrid library CCNG1
T16 chain: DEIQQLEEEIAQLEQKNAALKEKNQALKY

P12A = target: T17, P12A; assay: two-hybrid library CCNG1
T17 chain: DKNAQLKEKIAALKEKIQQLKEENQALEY

P5A = target: T18, P5A; assay: two-hybrid library CCNG1
T18 chain: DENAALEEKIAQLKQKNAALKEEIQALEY

P6A = target: T19, P6A; assay: two-hybrid library CCNG1
T19 chain: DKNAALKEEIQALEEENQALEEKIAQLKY

P11A = target: T20, P11A; assay: two-hybrid library CCNG1
T20 chain: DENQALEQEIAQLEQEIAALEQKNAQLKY

P10A = target: T21, P10A; assay: two-hybrid library CCNG1
T21 chain: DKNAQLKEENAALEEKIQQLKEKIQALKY

P7A = target: T22, P7A; assay: two-hybrid library CCNG1
T22 chain: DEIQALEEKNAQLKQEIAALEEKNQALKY

P1A = target: T23, P1A; assay: two-hybrid library CCNG1
T23 chain: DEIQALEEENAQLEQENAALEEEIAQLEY

P2A = target: T24, P2A; assay: two-hybrid library CCNG1
T24 chain: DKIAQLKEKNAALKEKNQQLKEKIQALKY

P9A = target: T25, P9A; assay: two-hybrid library CCNG1
T25 chain: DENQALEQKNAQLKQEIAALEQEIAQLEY

P4A = target: T26, P4A; assay: two-hybrid library CCNG1
T26 chain: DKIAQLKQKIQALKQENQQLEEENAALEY

P8A = target: T27, P8A; assay: two-hybrid library CCNG1
T27 chain: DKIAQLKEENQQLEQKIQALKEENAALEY

Core_NNIN-es_KKKE = target: T28, Core_NNIN-es_KKKE; assay: two-hybrid library CCmax; settings: mean of both orientations
T28 chain: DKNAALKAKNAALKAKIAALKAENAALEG

Core_NNNI-es_KKKK = target: T29, Core_NNNI-es_KKKK; assay: two-hybrid library CCmax; settings: mean of both orientations
T29 chain: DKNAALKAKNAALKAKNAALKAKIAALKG

Core_NIII-es_KEKK = target: T30, Core_NIII-es_KEKK; assay: two-hybrid library CCmax; settings: mean of both orientations
T30 chain: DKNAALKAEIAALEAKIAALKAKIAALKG

Core_NNIN-es_KKKK = target: T31, Core_NNIN-es_KKKK; assay: two-hybrid library CCmax; settings: mean of both orientations
T31 chain: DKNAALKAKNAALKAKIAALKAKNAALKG

interaction score (Core_NNIN-es_KKKE): 2.07
B3: Core_NNIN-es_EEEK (peptide)
chain: DENAALEAENAALEAEIAALEAKNAALKG

interaction score (Core_NNNI-es_KKKK): 2.16
B4: Core_NNNI-es_EEEE (peptide)
chain: DENAALEAENAALEAENAALEAEIAALEG

interaction score (Core_NNIN-es_KKKK): 1.83
B6: Core_NNIN-es_EEEE (peptide)
chain: DENAALEAENAALEAEIAALEAENAALEG

The remaining lines, values behind:

B1: 4H2608-AA (peptide)
chain: DKIAALKAEIAALEAKIAALKAKNAALKG
interaction score (4H327-AA): 1.83
interaction score (4H662-AA): -1.55
interaction score (4H4033-AA): -0.845
interaction score (4H3605-AA): -0.648
interaction score (4H3664-AA): -0.787
interaction score (4H3922-AA): -1.39
interaction score (4H369-AA): 0.124
interaction score (4H481-AA): 1.33
interaction score (4H3625-AA): 1.92
interaction score (Core_IIIN-es_EKEE): 1.53
interaction score (4H2608-AA): -0.193
interaction score (4H2726-AA): -0.998
interaction score (4H2935-AA): -0.712
interaction score (4H2614-AA): -0.644
interaction score (4H55-AA): -0.255

B2: P10A (peptide)
chain: DKNAQLKEENAALEEKIQQLKEKIQALKY
interaction score (P3A): 0.616
interaction score (P12A): -0.26
interaction score (P5A): -0.424
interaction score (P6A): 0.00329
interaction score (P11A): 0.405
interaction score (P10A): -0.322
interaction score (P7A): 1.36
interaction score (P1A): 0.349
interaction score (P2A): -0.904
interaction score (P9A): 2.37
interaction score (P4A): -0.619
interaction score (P8A): -0.507

B5: Core_NIII-es_EKEE (peptide)
chain: DENAALEAKIAALKAEIAALEAEIAALEG
interaction score (Core_NIII-es_KEKK): 1.92
